We go through two molecules from PMC8864007 (2022).

The target in assay [1] is T1, HER2-Fc protein (human, UniProt P04626 23-652). Description: SPR.
The target of assay [2] is T1, HER2-Fc protein. Briefly: ELISA.
A further assay deals with T2, murine HER2 (murine, UniProt P70424 23-1256).
T2 chain: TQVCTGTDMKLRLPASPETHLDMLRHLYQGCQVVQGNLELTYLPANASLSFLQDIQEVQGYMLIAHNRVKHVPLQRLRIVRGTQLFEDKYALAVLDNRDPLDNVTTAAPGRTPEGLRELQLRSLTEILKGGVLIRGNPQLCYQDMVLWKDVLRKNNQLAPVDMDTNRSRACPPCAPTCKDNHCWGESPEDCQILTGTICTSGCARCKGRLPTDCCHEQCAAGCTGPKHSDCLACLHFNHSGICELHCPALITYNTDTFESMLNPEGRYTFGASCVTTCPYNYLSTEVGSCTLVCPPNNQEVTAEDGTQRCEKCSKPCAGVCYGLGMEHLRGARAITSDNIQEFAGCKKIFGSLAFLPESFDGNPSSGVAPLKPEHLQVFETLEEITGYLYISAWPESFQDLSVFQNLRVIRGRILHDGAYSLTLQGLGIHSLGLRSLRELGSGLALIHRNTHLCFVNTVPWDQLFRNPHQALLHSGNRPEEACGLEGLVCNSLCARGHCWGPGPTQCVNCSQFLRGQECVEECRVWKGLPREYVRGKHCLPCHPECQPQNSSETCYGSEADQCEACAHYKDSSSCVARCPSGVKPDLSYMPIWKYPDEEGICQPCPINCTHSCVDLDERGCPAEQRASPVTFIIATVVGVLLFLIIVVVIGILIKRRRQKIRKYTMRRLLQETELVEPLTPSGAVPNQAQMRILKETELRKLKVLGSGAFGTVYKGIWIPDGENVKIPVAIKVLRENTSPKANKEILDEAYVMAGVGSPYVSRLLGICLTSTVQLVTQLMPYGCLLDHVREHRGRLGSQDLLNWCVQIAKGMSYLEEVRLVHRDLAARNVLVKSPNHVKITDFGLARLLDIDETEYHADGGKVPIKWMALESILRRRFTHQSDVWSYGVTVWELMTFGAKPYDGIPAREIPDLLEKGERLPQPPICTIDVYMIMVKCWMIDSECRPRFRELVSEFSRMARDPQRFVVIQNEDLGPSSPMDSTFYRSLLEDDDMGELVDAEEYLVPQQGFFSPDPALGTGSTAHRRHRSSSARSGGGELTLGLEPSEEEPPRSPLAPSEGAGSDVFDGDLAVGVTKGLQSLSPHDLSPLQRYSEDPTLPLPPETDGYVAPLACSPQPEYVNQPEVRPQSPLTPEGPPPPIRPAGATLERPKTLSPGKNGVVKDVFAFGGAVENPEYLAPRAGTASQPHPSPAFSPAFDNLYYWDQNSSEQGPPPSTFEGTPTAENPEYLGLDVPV
Description: ELISA.

The target of a further assay is Human HER4-Fc. Briefly: ELISA.
The next assay has as its target Human HER2-His6. Description: ELISA.
Another assay addresses Cynomolgus HER2-Fc. Briefly: ELISA.
The next assay concerns the target Human EGFR-Fc. Briefly: ELISA.
Another assay concerns the target Canine HER2-Fc. Description: ELISA.
The target of a further assay is Rat HER2-Fc. Description: ELISA.
For a further assay, the target named is Human IgG Fc. Briefly: ELISA.
In another assay the target is Human HER3-Fc. Description: ELISA.
The target of a further assay is Rhesus HER2-Fc. Description: ELISA.

B1: VHH_1028 (VHH)
VHH: EVQLVESGGGLVQAGGSLRLSCAASGITFSINTMGWYRQAPGKQRELVALISSIGDTYYADSVRGRFTISRDNAKNTVYLQMNSLKPEDTAVYYCKRFRTAAQGTDYWGQGTQVTVSS
With B1, in the assay with HER2-Fc protein [1], the off-rate (koff) came to 0.000718 s⁻¹. The half-maximal effective concentration (EC50) is 0.77 nM with HER2-Fc protein [2]; over 10000 nM with murine HER2; over 10000 nM in the assay with Human HER4-Fc; 0.69 nM with Human HER2-His6; 1.19 nM in the assay with Cynomolgus HER2-Fc; over 10000 nM with Human EGFR-Fc. For the same molecule, the 50% effective concentration (EC50) in the assay with Canine HER2-Fc was 1.09 nM; in the assay with Rat HER2-Fc, over 10000 nM; with Human IgG Fc, over 10000 nM; with Human HER3-Fc, over 10000 nM; with Rhesus HER2-Fc it was 1.18 nM.

B2: iso-SGMIB-VHH_1028 (VHH)
VHH: EVQLVESGGGLVQAGGSLRLSCAASGITFSINTMGWYRQAPGKQRELVALISSIGDTYYADSVRGRFTISRDNAKNTVYLQMNSLKPEDTAVYYCKRFRTAAQGTDYWGQGTQVTVSS
modifications: one iso-SGMIB (non-radioactive) conjugated, mono-substituted; site not stated
Regarding B2, in the assay with HER2-Fc protein [1], the koff was found to be 0.00071 s⁻¹.
